One molecule from patent publication US7601803 (SCIL PROTEINS, dated 2009) can be followed below.

This test deals with T1, BSA (UniProt P02769 25-607).
T1 construct: Unconjugated carrier protein used as the control antigen
In words: concentration-dependent ELISA, BSA coated at 20 µg/ml, detected with tetra-His antibody. Here is the method: Specific binding of mutant 12A to the BSA-estradiol-17-hemisuccinate conjugate was assayed by carrying out an ELISA, with increasing concentrations of purified mutant 12A-His-Tag protein being used. Increasing amounts of gamma-II-crystalline wild-type (likewise with His-Tag) were used as control, and binding of both purified proteins to BSA was assayed. The concentration-dependant ELISA was carried out using NUNC-Tm plates. Antigen coating with the BSA-estradiol-17-hemisuccinate conjugate or with BSA was carried out at room temperature overnight. Coating was carried out with in each case 100 µl of antigen at a concentration of 20 µg/ml of PBS pH 7.6. After washing (2×PBS pH 7.6) and blocking the plates (3% Marvel/PBS at 37° C. for 2 h), in each case 1-13 µl of the protein stock solution (concentration 0.63 mg/ml) of purified Mu 12A or gamma-II-crystalline were introduced into a total 100 µl of reaction solution (PBS, 3% Marvel, x µl of protein) and incubated in the wells at 37° C. for 2 h. The secondary antibodies used were the tetra-His antibody from Qiagen in a dilution of 1:3000 and the anti-mouse POD antibody (Sigma) in a dilution of 1:2000. The antibodies were diluted with a 3% strength Marvel/PBS solution and 100 µl were added to the wells and incubated at 37° C. for in each case 1 h. […] No increase was detected using gamma-II-crystalline. […]

T1 sequence (P02769 25-607 limits assumed): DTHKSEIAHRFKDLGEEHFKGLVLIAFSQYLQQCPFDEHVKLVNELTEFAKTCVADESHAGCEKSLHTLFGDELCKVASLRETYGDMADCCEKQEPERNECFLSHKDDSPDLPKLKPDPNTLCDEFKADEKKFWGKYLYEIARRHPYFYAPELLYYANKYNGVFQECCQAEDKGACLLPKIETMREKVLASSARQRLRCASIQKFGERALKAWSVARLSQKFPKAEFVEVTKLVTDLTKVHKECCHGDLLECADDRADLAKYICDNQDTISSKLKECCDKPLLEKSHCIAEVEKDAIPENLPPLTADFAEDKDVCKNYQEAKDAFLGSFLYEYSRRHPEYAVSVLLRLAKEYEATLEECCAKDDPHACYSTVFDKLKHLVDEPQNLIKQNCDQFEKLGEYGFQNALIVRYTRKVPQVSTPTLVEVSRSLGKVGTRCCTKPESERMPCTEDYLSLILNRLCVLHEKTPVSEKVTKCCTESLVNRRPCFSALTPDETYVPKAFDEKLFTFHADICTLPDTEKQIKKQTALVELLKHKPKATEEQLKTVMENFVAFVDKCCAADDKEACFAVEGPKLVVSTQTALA

B1: bovine gamma-II-crystalline wild-type, purified His-Tag protein after expression in pET-20b (other)
chain: MGKITFYEDRGFQGHCYECSSDCPNLQPYFSRCNSIRVDSGCWMLYERPNYQGHQYFLRRGDYPDYQQWMGFNDSIRSCRLIPQHTGTFRMRIYERDDFRGQMSEITDDCPSLQDRFHLTEVHSLNVLEGSWVLYEMPSYRGRQYLLRPGEYRRYLDWGAMNAKVGSLRRVMDFYSDPNSSSVDKLAAALEHHHHHH
notes: Starting protein used as the control, likewise with His-Tag; also called WT; gamma-B-crystalline
For B1, the binding result is given as “no binding”.
